Experimental data from article PMC1635300.

Molecular target: Progesterone receptor isoform B (PRB) (Homo sapiens, UniProt P06401 1-933)
Assay: EMSA

Progesterone receptor isoform B (PRB), sequence (P06401 whole entry, canonical isoform): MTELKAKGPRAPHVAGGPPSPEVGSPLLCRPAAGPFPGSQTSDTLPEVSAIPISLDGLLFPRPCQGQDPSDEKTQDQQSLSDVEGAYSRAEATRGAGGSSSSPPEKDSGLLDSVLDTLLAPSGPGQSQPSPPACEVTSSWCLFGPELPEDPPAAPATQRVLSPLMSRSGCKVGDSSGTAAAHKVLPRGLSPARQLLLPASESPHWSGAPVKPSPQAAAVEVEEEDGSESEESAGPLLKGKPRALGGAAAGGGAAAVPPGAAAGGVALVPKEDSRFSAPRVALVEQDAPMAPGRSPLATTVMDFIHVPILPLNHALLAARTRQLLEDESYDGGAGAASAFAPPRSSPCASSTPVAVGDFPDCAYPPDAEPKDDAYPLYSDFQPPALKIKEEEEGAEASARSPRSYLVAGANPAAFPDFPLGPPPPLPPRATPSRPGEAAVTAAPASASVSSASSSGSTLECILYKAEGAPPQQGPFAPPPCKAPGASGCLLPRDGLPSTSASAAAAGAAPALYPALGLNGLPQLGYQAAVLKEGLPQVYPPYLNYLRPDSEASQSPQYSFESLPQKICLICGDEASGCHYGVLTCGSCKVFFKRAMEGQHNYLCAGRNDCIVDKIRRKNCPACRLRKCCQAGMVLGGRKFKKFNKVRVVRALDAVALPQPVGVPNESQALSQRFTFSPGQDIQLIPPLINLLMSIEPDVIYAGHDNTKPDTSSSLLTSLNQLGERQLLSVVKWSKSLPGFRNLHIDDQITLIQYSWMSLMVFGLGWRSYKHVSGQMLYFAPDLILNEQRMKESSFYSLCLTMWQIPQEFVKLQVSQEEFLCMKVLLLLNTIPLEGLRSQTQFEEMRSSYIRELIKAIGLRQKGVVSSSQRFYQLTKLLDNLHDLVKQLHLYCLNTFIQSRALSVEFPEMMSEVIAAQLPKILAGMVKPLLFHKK

B1: PRE (dsDNA)
DNA 1: GTTACAAACTGTTCT
DNA 2: AGAACAGTTTGTAAC
B1: binds.
